Assay results published in the supplement of paper PMC5998384.

Assays:
[1] = test system: HeLa Kyoto; assay: thermal stability score vs G1/S (z-score of summed log2 fold changes over temperatures); higher = more thermally stable than in G1/S
[2] = test system: HeLa Kyoto; assay: solubility in G1/S (NP-40 vs SDS abundance) (log2 ratio); higher = more soluble; settings: cell cycle stage: G1/S
[3] = test system: HeLa Kyoto; assay: solubility change mitosis vs G1/S (difference of NP-40 vs SDS log2 ratios) (log2 ratio difference); higher = more soluble in mitosis
[4] = test system: HeLa Kyoto; assay: melting temperature (median over replicates), in situ; higher = more thermally stable
[5] = cell cycle stage: early G1 (4.5 h after nocodazole release)
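For melting temperature (median over replicates), in situ in this document: HeLa Kyoto cells synchronized by double thymidine or nocodazole block, proteins quantified by TMT10plex mass spectrometry, three independent biological replicates.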
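For solubility change mitosis vs G1/S (difference of NP-40 vs SDS log2 ratios) in this document: synchronized HeLa Kyoto cells (double thymidine block for G1/S, nocodazole release for mitosis), protein amounts in NP-40 versus SDS lysates quantified by mass spectrometry, three biological replicates.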
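For solubility in G1/S (NP-40 vs SDS abundance) in this document: HeLa Kyoto cells arrested at G1/S by double thymidine block, proteins quantified by TMT10plex mass spectrometry in mild NP-40 versus SDS extracts, three biological replicates.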
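For thermal stability score vs G1/S (z-score of summed log2 fold changes over temperatures) in this document: synchronized HeLa Kyoto cells, proteins quantified by TMT10plex mass spectrometry, three biological replicates, mitosis taken 0.5 h after nocodazole release, G1/S directly after double thymidine block.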

Sequence	thermal stability score [1, 5]	thermal stability score ([1]; cell cycle stage: mitosis)	solubility in G1/S (log2) [2]	solubility change mitosis (log2) [3]	melting temperature ([4]; cell cycle stage: G1/S)	melting temperature ([4]; cell cycle stage: mitosis)
MLRWLRDFVLPTAACQDAEQPTRYETLFQALDRNGDGVVDIGELQEGLRNLGIPLGQDAEEKIFTTGDVNKDGKLDFEEFMKYLKDHEKKMKLAFKSLDKNNDGKIEASEIVQSLQTLGLTISEQQAELILQSIDVDGTMTVDWNEWRDYFLFNPVTDIEEIIRFWKHSTGIDIGDSLTIPDEFTEDEKKSGQWWRQLLAGGIAGAVSRTSTAPLDRLKIMMQVHGSKSDKMNIFGGFRQMVKEGGIRSLWRGNGTNVIKIAPETAVKFWAYEQYKKLLTEEGQKIGTFERFISGSMAGATAQTFIYPMEVMKTRLAVGKTGQYSGIYDCAKKILKHEGLGAFYKGYVPNLLGIIPYAGIDLAVYELLKSYWLDNFAKDSVNPGVMVLLGCGALSSTCGQLASYPLALVRTRMQAQAMLEGSPQLNMVGLFRRIISKEGIPGLYRGITPNFMKVLPAVGISYVVYENMKQTLGVTQK [SLC25A24]	-1.13	-0.922	0.296	-0.0619	56.8 °C	57.8 °C
MLSAASRVVSRAAVHCALRSPPPEARALAMSRPPPPRVASVLGTMEMGRRMDAPASAAAVRAFLERGHTELDTAFMYSDGQSETILGGLGLGLGGGDCRVKIATKANPWDGKSLKPDSVRSQLETSLKRLQCPQVDLFYLHAPDHGTPVEETLHACQRLHQEGKFVELGLSNYASWEVAEICTLCKSNGWILPTVYQGMYNATTRQVETELFPCLRHFGLRFYAYNPLAGGLLTGKYKYEDKDGKQPVGRFFGNSWAETYRNRFWKEHHFEAIALVEKALQAAYGASAPSVTSAALRWMYHHSQLQGAHGDAVILGMSSLEQLEQNLAATEEGPLEPAVVDAFNQAWHLVAHECPNYFR [AKR7A2]	0.491	0.31	0.438	-0.121	53.1 °C	53.1 °C
MLSESSSFLKGVMLGSIFCALITMLGHIRIGHGNRMHHHEHHHLQAPNKEDILKISEDERMELSKSFRVYCIILVKPKDVSLWAAVKETWTKHCDKAEFFSSENVKVFESINMDTNDMWLMMRKAYKYAFDKYRDQYNWFFLARPTTFAIIENLKYFLLKKDPSQPFYLGHTIKSGDLEYVGMEGGIVLSVESMKRLNSLLNIPEKCPEQGGMIWKISEDKQLAVCLKYAGVFAENAEDADGKDVFNTKSVGLSIKEAMTYHPNQVVEGCCSDMAVTFNGLTPNQMHVMMYGVYRLRAFGHIFNDALVFLPPNGSDND [C1GALT1C1]	-0.0972	-0.609	0.0342	-0.0947	53.9 °C	53.4 °C
MLSLLVWILTLSDTFSQGTQTRFSQEPADQTVVAGQRAVLPCVLLNYSGIVQWTKDGLALGMGQGLKAWPRYRVVGSADAGQYNLEITDAELSDDASYECQATEAALRSRRAKLTVLIPPEDTRIDGGPVILLQAGTPHNLTCRAFNAKPAATIIWFRDGTQQEGAVASTELLKDGKRETTVSQLLINPTDLDIGRVFTCRSMNEAIPSGKETSIELDVHHPPTVTLSIEPQTVQEGERVVFTCQATANPEILGYRWAKGGFLIEDAHESRYETNVDYSFFTEPVSCEVHNKVGSTNVSTLVNVHFAPRIVVDPKPTTTDIGSDVTLTCVWVGNPPLTLTWTKKDSNMVLSNSNQLLLKSVTQADAGTYTCRAIVPRIGVAEREVPLYVNGPPIISSEAVQYAVRGDGGKVECFIGSTPPPDRIAWAWKENFLEVGTLERYTVERTNSGSGVLSTLTINNVMEADFQTHYNCTAWNSFGPGTAIIQLEEREVLPVGIIAGATIGASILLIFFFIALVFFLYRRRKGSRKDVTLRKLDIKVETVNREPLTMHSDREDDTASVSTATRVMKAIYSSFKDDVDLKQDLRCDTIDTREEYEMKDPTNGYYNVRAHEDRPSSRAVLYADYRAPGPARFDGRPSSRLSHSSGYAQLNTYSRGPASDYGPEPTPPGPAAPAGTDTTSQLSYENYEKFNSHPFPGAAGYPTYRLGYPQAPPSGLERTPYEAYDPIGKYATATRFSYTSQHSDYGQRFQQRMQTHV [KIRREL]	-1.16	-0.769	-0.151	0.0763	52 °C	52.2 °C
MLSSCVRPVPTTVRFVDSLICNSSRSFMDLKALLSSLNDFASLSFAESWDNVGLLVEPSPPHTVNTLFLTNDLTEEVMEEVLQKKADLILSYHPPIFRPMKRITWNTWKERLVIRALENRVGIYSPHTAYDAAPQGVNNWLAKGLGACTSRPIHPSKAPNYPTEGNHRVEFNVNYTQDLDKVMSAVKGIDGVSVTSFSARTGNEEQTRINLNCTQKALMQVVDFLSRNKQLYQKTEILSLEKPLLLHTGMGRLCTLDESVSLATMIDRIKRHLKLSHIRLALGVGRTLESQVKVVALCAGSGSSVLQGVEADLYLTGEMSHHDTLDAASQGINVILCEHSNTERGFLSDLRDMLDSHLENKINIILSETDRDPLQVV [NIF3L1]	-0.711	-0.332	0.187	-0.161	60.8 °C	60.7 °C
